# Experiment: yeast display, Sf9 membrane polyspecificity reagent, FACS + sequencing; frameworks hold sequencing errors
# Method in brief: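 Nanobodies from a synthetic yeast display library (Saccharomyces cerevisiae BJ5465), induced 36–48 hours with galactose, were stained 1 hour at 4 °C with 10% biotinylated, detergent-solubilized Sf9 membrane reagent, enriched on streptavidin microbeads, then FACS-sorted. Anti-HA (expression) and streptavidin (reagent binding) fluorescence set low and high (top ~1%) gates. Polyreactivity labels come from the gate of origin. Genes were colony-PCR amplified, MiSeq 2 × 250 sequenced and filtered by CDR length.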
row,Sequence,polyreactivity (PSR sort gate)
1,QVQLVESGGGLVQAGGSLRLSCAASGSTFPDYAMGWYRQAPGKERELVAAISWSGGSTYYADSVKGRFTISRDNAKNTVYLQMNSLKPEDTAVYYCAAGYSPPKPYSGGYYYWGQGTQVTVSS,low polyreactivity
2,QVQLVESGGGLVQAGGSLRLSCAASGSTFPEYAMGWYRQAPGKERELVATISWSGGSTDYADSVKGRITISRDNAKNTVYLQMNSLKPEDTAVYYCNKELIPHFDTRESWGQGTQVSVSS,low polyreactivity
3,QVQLVESGGGLVQAGGSLRLSCAASGSTFPFYAMGWYRQAPGKERELVAAIPSGGSTYADSVKGRFTISRDNAKNTVYLQMNSLKPEDTAVYYCAASWPRWWRFGYWGQGTQVTVSS,low polyreactivity
4,QVQLVESGGGLVQAGGSLRLSCAASGSTFPFYAMGWYRQAPGKERELVAAITSGGSTYADSVKGRFTISRDNAKNTVYLQMNSLKPEDTAVYYCAASWPRWCRFGYWGQGTQVTVSS,low polyreactivity
5,QVQLVESGGGLVQAGGSLRLSCAASGSTFPFYAMGWYRQAPGKERELVATISSDGSTNYADSVKGRFTISRDNAKNTVYLQMNSLKPEDTAVYYCNALARWWAYYDYGYWGQGTQVTVSS,low polyreactivity
6,QVQLVESGGGLVQAGGSLRLSCAASGSTFPGNAMGWYRPAPGKERELVARINDGADTNYADSVKGRFTISRDNAKNTVYLQMNSLKPEDTAVYYCAKPYYDGRTHFDSWGQGTQVTVSS,low polyreactivity
7,QVQLVESGGGLVQAGGSLRLSCAASGSTFPGNAMGWYRQAPGKEREFVAVISRSGGGTYYADSVKGRFTISRDNAKNTVYLQMNSLKPEDTAVYYCAARRGLWGYGTGNGYWGQGTQVTVSS,low polyreactivity
8,QVQLVESGGGLVQAGGSLRLSCAASGSTFPGNAMGWYRQAPGKERELVASIRRSGGSTYYADSVKGRFTISRDNAKNTVYLQMNSLKPADTAVDDCAKRTFLVSGPRSYGCYGVYYWGQGTQVTVSS,high polyreactivity
9,QVQLVESGGGLVQAGGSLRLSCAASGSTFPGNAMGWYRQAPGKERELVASIRRSGGSTYYADSVKGRFTISRDNAKNTVYLQMNSLKPEDTAVYYCAKRTFLVSGPRSYGCYGVYYWGQGTQVTVSS,high polyreactivity
10,QVQLVESGGGLVQAGGSLRLSCAASGSTFPGYAMGWYRQAPGKERELVAAGGSTYYADSVKGRFTISRDNAKNTVYFQMNSLKPEDTAGYYCAATWGSVQKGTYYYWGQGTQVTVSS,low polyreactivity
11,QVQLVESGGGLVQAGGSLRLSCAASGSTFPGYAMGWYRQAPGKERELVAAISKRGGSTRYADSVKGRFTISRDNAKNTVYLQMNSLKPEDTAVYYCNNRSQISHYRRHDYWGQGTQVTVSS,high polyreactivity
12,QVQLVESGGGLVQAGGSLRLSCAASGSTFPKYAMGWYRQAPGKERELVAAISWSGDSTYYADSVKGRFTISRDNAKNSVYLQMNSLNPEDTAVYYCAAYNFIHAGPWEYDYWGQGTQVSVSS,low polyreactivity
13,QVQLVESGGGLVQAGGSLRLSCAASGSTFPLNVMGWYRQAPGKERELVAAISSSGGRTYYADSVKGRFTISRDNAKNTVYLQMNSLKPEDTAVYYCNARWRKNLSGRVFRYDYWGQGTQVTVSS,high polyreactivity
14,QVQLVESGGGLVQAGGSLRLSCAASGSTFPLYAMGWYRQAAGKEWELVAAITSGGGNTYYADSVKGRFTISRDNAKNTVYLQMNSLKPEDTAVYYCAAVGGYKSYYSYEYDYWGQGTQETVSS,low polyreactivity
15,QVQLVESGGGLVQAGGSLRLSCAASGSTFPLYAMGWYRQAPGKEREFVAAIRWIGGSTYYADSVKGRFTISRDNAKNTVYLQMNSLKPEDTAVYYCAADYVVSAFDYWGQGTQVTVSS,low polyreactivity
16,QVQLVESGGGLVQAGGSLRLSCAASGSTFPLYVMGWYRQAPGKERELVAAIDWSGGSTYYADSVKGRFTISRDTAKNTVYLQMNSLKPEDTAVYYCAADSPNSWRMDYWGQGTQVTVSS,low polyreactivity
